Results from the RNAGym collection of RNA variant scans (doi:10.1073/pnas.2313332121).

B1: TPR t1 (parent)
chain: GACCAAUCUGCCCUCAGAGCUCGAGAACAUCUUCGGAUGCAGAGGAGGCAGGCUUCGGUGGCGCGAUAGCGCCAACGUCCUCAACCUCCAAUGCAUCCCACCACAUGAUGAUGCCUGAAGAGCCUUGGUUUUUUG

Variants of: B1
Assay: polymerase ribozyme fitness, log enrichment relative to wild type (log ratio); higher = more active; in vitro selection for triplet polymerase activity
Summary of the method: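 Frozen incubation at −7 °C formed the core of a single, triplicate in vitro selection round applied to PCR-built, transcribed mutant libraries of each subunit of a heterodimeric triplet polymerase ribozyme. Extended constructs were gel-excised, captured with streptavidin beads and amplified by RT-PCR, and input and output libraries were Illumina-sequenced with a filter of ≥10 input reads and ≥1 read per output. Fitness is the logarithm of genotype enrichment relative to wild-type enrichment, with inverse-variance-weighted replicate averaging, and the logarithm is base 2.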

Variant | polymerase ribozyme fitness (log ratio)
U9A C13U G25A A29G C53A C114G | -6.86
G60U U112G A121G U133A U134A | 1.66
G120A G127A U129C | -1.04
U116G U126C | -3.51
C8A C13G G61U A84U | -0.177
C8A C40U C62A A90C | -3.39
C8U C13G C53G C72G U87A U133C | -2.29
A26U C73A | -2.82
U9G U38C A46C U59C A66U U81A | -5.6
C49G G57U A119G U133G | -0.101
C82G U129G | -1.36
A24U C88G | -5.62
C11U G60A U78C A95U U112A U116G | -3.18
G45C U87C A108U | -6.32
G52A U126C | -1.17
C64A G120A | -5.35
C72G C114G U130G U133A | -3.37
G17C C104A | -6.53
C34U G69A | -5.14
A2G C8G U96A G135U | -1.73
A27U C49G G51A C80A C99U G120C U130A | -8.17

Variant | polymerase ribozyme fitness (log ratio)
C79G C123G U133A | 0.663
A46U G48C G128U | -3.83
U33G U87G | -5.18
C56U U96C C114G | -3.1
A95G G117A U133A | -1.23
C22G A43U A46G U59A G120C | -4.94
A26U A37G | -2.5
U54G C56A | -1.48
A46C C62G | -2.43
U21C G57U C72G | -2.29
G17A C62U | -3.04
G71U C99U C115A | -2.82
C8G A74U U78G | 0.422
C22G C53U G57C U78C C104A C124G | -1.59
G117C C124A G127U | -4.29
A26U C34A G63C U112G G128C | -7.83
A2U A43C U59A | -5.8
U7A U87A G127A | -1.5
C20A A43U G113C | -5.17
U9C C40G G63U G69U C79G C82U A118U A119G G135U | -4.3
C11A U96G G113C U130A | -5.5

Variant | polymerase ribozyme fitness (log ratio)
C85U G113A G120U | -2.7
C53U A121C | 2.13
C49U C89G | -1.74
C20G C85G | -3.76
C4G G17U C53U C56A | -3.68
C72U G135U | -1.38
U9G C15U U21C A83C | -0.505
A5C G113U | -3.73
A29U C40A U109C U130G | -6.92
G19A U116G | -6.24
A29C A37G G47U C101U G110U | -5.5
U78A C94A | -0.841
C56U G120C G122U | 1.43
A18C A43C G113A | -2.81
C72G U125A U133C | -0.433
C4A G42A | -2.74
A46U G52U | -2.32
A29G G60C A74U | -3.15
C22U G44C C56U | -4.25
G44U C49A A50C G71A | -5.27
C3U C56U G77C | -1.42

Variant | polymerase ribozyme fitness (log ratio)
C11A C85U | -1.28
A5U G52C C62A U112A | -0.939
C20U A90U G110U | -4.33
C8A C12A C34U C56G G71A G77A | -4.02
A24G A90G | -1.65
U54G A68C C101A G113U | -7.46
C11A U33G C56G A103G G122A | -6.79
C8G G113A | 0.074
C53A U81C U109A G110U U126G | -5.92
C3G G61U | -1.85
G63C C85G C102A | -2.51
C62U A119G | 0.565
U7C C8G C85A U112G | -1.68
C31U G61U | -4.59
C15U C85A C124U G128C U133G | -4.88
C62G A111C | -1.87
C13U C34U C88U | -4.18
A26U A41C A46U G61A C101U | -4.43
U55A G61U C85A C94A | -0.999
C70U U92A | -4.11
